Experimental data published in article PMC8027116 (2021).
One block for each binder: values may come before it.

Assays:
Test in all cases: activation reporter or marker
[1] = target: T1, preproinsulin peptide on HLA-DRA*01:01 / HLA-DRB1*03:01 (human)
T1 peptide: QKRGIVEQCCTSICS

[2] = target: T2, preproinsulin peptide on HLA-DRA*01:01 / HLA-DRB1*09:01 (human)
T2 peptide: AEDLQVGQVELGGGP

[3] = target: T3, preproinsulin peptide on HLA-DRA*01:01 / HLA-DRB1*03:01 (human)
T3 peptide: AEDLQVGQVELGGGP

[4] = target: T4, preproinsulin peptide on HLA-DQA1*05:01 / HLA-DQB1*02:02 (human)
T4 peptide: YLVCGERGFFYTPKT

[5] = target: T5, preproinsulin peptide on HLA-DQA1*05:01 / HLA-DQB1*02:01 (human)
T5 peptide: YLVCGERGFFYTPKT

[6] = target: T6, insulin B-chain peptide on HLA-DRA*01:01 / HLA-DRB1*04:01 (human)
T6 peptide: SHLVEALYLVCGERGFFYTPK

B3: 56.B1 (TCR)
alpha TRAV13-1 TRAJ40 CDR3: CAVLSPSGTYKYIF
beta TRBV7-9 TRBJ1-4 CDR3: CASSLMGNPHEKLFF
- binding result [4]: recognises
- binding result [5]: recognises

B4: 23.G8 (TCR)
alpha TRAV39 TRAJ56 CDR3: CAWRTGANSKLTF
beta TRBV24-1 TRBJ2-2 CDR3: CATGLAANTGELFF
- binding result [6]: no recognition

More lines, now with the values ahead:

- binding result [1]: no recognition
B1: 95.A9-1 (TCR)
alpha TRAV9-2 TRAJ18 CDR3: CALRTDRGSTLGRLYF
beta TRBV11-2 TRBJ1-6 CDR3: CASSLQSSYNSPLHF

- binding result [2]: no recognition
- binding result [3]: no recognition
B2: 55.C10 (TCR)
alpha TRAV26-1 TRAJ26 CDR3: CIVRSHGQNFVF
beta TRBV20-1 TRBJ2-7 CDR3: CSARPGTRNYEQYF
